# Measurements taken from patent US6770740B1, “Crosslinked DNA condesate compositions and gene delivery methods” (The Regents of the University of Michigan, priority 1999, dated 2004).
# How the values were obtained:
# plasmid DNA = assay: Thiazole orange displacement titration of peptide binding to DNA, Example 6; conditions: titration across charge ratios 0.25-8
# Experimental: Peptide DNA condensates were prepared by combining 50 μg of DNA in 500 μl of Hepes buffered mannitol (HBM) (5 w/v% mannitol, 5 mM Hepes, pH 7.5) with […] of peptide in 500 μl of HBM while vortexing to form peptide DNA condensates with a calculated primary amine to phosphate charge ratio between 0.25 and 8.0 (NH4^+:PO4). The condensates were allowed to cross-link for 30 min prior to performing physical measurements. The binding of each peptide to DNA was assayed by combining peptide DNA condensates (50 μl) with 950 μl of HBM containing 0.1 μM thiazole orange. The fluorescence of the intercalated dye was measured using an LS50B fluorometer (Perkin Elmer, UK) by exciting at 500 nm while monitoring emission at 530 nm with the slit width set at 15 and 20 nm, respectively. Fluorescence blanks were substracted from all values before data analysis.
# [1] = QELS particle size and zeta potential of peptide DNA condensates, Example 6; assay type: physicochemical; conditions: charge ratio 4:1, 50 μg/ml DNA in HBM; for Particle Size (nm): 90°, average and SD of three, No particles formed; for Zeta Potential (mV): average and SD of ten
# Experimental: The particle size and zeta potential of peptide DNA condensates were determined by quasielastic light scattering (QELS) using a Brookhave ZetaPlus™. Particle size analysis was performed in triplicate at a DNA concentration of 50 μg/ml in HBM at a charge ratio of 4:1 and a scattering angle of 90°. Data analysis utilized a multimodal volume distribution option included with the instrument. Zeta potential was also determined using 50 μg/ml peptide DNA condensates prepared at a 4:1 charge ratio in HBM. The reported zeta potential was averaged from ten determinations.
# [2] = Shear stress stability (salt sonication assay), Example 6; assay type: physicochemical; conditions: 30 sec sonication; highest tested 2.5 M
# Experimental: The relative stability of peptide DNA condensates were examined using a salt sonication assay (Adami and Rice, 1999). Peptide DNA condensates (200 μl of 50 μg/ml) were formed as described above, incubated at RT for 30 min and then combined with 0-200 μl of 5 m […] and normalized to 400 μl with HBM to achieve a final sodium chloride concentration of 0, 0.2, 0.4, 0.8, 1.0, 1.5, 2.0 and 2.5 M. Each sample was sonicated for 30 sec with a 100 W Microson™ XL-2000 ultrasonic probe homogenizer (Kontes, Vineland N.J.) with a vibrational amplitude of 5 fragment uncondensed DNA. DNA condensates were digested with 30 μg to trypsin for 12 h at 37° C., electrophoresed on a 1% agarose gel electrophoresed in TEA buffer for 2 h, then visualized by ethidium bromide staining and destaining prior to photography on a transilluminator.
# [3] = QELS particle size and zeta potential of cross-linking peptide DNA condensates, Example 5; assay type: physicochemical; conditions: for Particle Size Mean Diameter, Oxidized, 15° / Particle Size Mean Diameter, Oxidized, 90°: HBM after 2 h incubation, 50 μg/ml DNA, 0.4 nmol peptide per μg DNA; for Particle Size Mean Diameter, Oxidized, 15°: scattering angle 15°; for Particle Size Mean Diameter, Oxidized, 90°: scattering angle 90°; for Particle Size Mean Diameter, Saline: HBM with added saline (0.15 M) after 15 min; for Particle Size Mean Diameter, Reduced: following addition of TCEP (1 mM)
# Experimental: The particle size of each peptide DNA condensate was determined by quasielastic light scattering (QELS) at a scatter angle of both 15° and 90° on a Brookhaven ZetaPlus™ particle sizer. Condensates were prepared at a DNA concentration of 50 μg/ml in 400 μl HBM at a stoichiometry of 0.4 nmol of peptide per μg of DNA corresponding to a charge ratio of approximately 2:1 for each. The mean diameter and population distribution were computed from the diffusion coefficient using a unimodal cummulant analysis supplied by the manufacturer.
# The particle size and zeta peptide IV DNA condensates were determined by titrating 7.5 to 37.5 nmol of peptide with 75 μg of DNA in 1.5 ml of HBM to produce 50 μg/ml DNA condensates with charge ratio of 0.5-2.5. The zeta potential was averaged from 10 determines.
# [4] = Shear stress stability of cross-linked DNA condensates (salt sonication), Example 5; assay type: physicochemical; conditions: charge ratio of 0.9
# Experimental: Peptide DNA condensates (200 μl of 50 μg/ml) were formed and incubated at RT for 30 min and then combined with 0 to 200 μl of 5 M sodium chloride and normalized to 400 μl with HBM to achieve a final sodium chloride concentration of 0, 0.2, 0.4, 0.8, 1.0, 1.5, 2.0, and 2.5 M. Each sample was sonicated for 30 sec with a 100 W Microson™ XL-2000 ultrasonic probe homogenizer (Kontes, Vineland N.J.) with a vibrational amplitude of 6 to fragment uncondensed DNA (Adami et al., 1998). DNA condensates were digested with 30 μg of trypsin for 12 h at 37° C. then electrophoresed on an agarose gel and visualized by ethidium bromide staining.
# HepG2 cells = assay: Luciferase gene expression in HepG2 cells, Example 6; assay type: cell-based; conditions: HepG2, absence of chloroquine
# Experimental: HepG2 cells (1.5×10^5) were plated on 6×35 mm wells and grown to 50% confluencey in MEM supplemented with 10% FBS, penicillin and streptomycin (100 U/ml), sodium pyruvate (100 mM), and L-glutamine (2 mM). Transfections were performed in MEM (2 ml per 35 mm well) with 2% FBS with and without 80 μM chloroquine. Peptide DNA condensates (10 μg of DNA of 0.2 ml HBM) were added dropwise to triplicate wells. After a 5 h incubation at 37° C., the medium was replaced with MEM supplemented with 10% FBS. After 24 h, cells were washed with ice-cold phosphate buffered saline (calcium and magnesium free) and then treated with 0.5 ml of ice-cold lysis buffer (25 mM) Tris chloride pH 7.8, 1 mM EDTA, 8 mM magnesium chloride, 1% Triton X-100, 1 mM DTT) for 10 min. The cell lysates were scraped, transferred to 1.5 ml microcentrifuge tube, and centrifuged for 7 min at 13,000 g at 4° C. to pellet debris.
# Lysis buffer (300 μl), sodium-ATP (4 μl of a 180 mM solution, pH 7, 4° C.) and cell lysate (100 μl, 4° C.) were combined in a test tube, briefly mixed and immediately placed in the luminometer. Luciferase relative light units (RLU) were recorded on a Lumat™ LB 9501 (Berthoid Systems, Germany) with 10 sec integration after automatic injection of 100 μl of 0.5 mM D-luciferin (prepared fresh in lysis buffer without DTT). The RLU were converted into fmol using a standard curve generated by adding a known amount of luciferase (0.01 to 100 fmols with specific activity of 2.5 nU/fmol) to 35 mm wells containing 50% confluent cells and lysis buffer. Protein concentrations were measured by Bradford assay using bovine serum albumin as a standard (Bradford, 1976). […]
# LipofectAce™ (Gibco BRL, 1:2.5 w/w dimethyl dioctadecylammonium bromide and dioleoyl phosphatidylethanolamine) was used to mediate gene transaction according to the manufacturer's instructions. […] The cells were incubated for a total of 24 h, harvested and analyzed for luciferase as described above.
substance,measurement,setting,value
Cys-(Lys)6-Cys (CKKKKKKC) [Peptide 6],charge ratio (NH4+:PO4) needed to condense DNA (thiazole orange fluorescence minimum),plasmid DNA,2
same,Particle Size (nm),[1],52 ± 4 nm
same,Zeta Potential (mV),[1],37 ± 1 mV
Cys-(Lys)2-Cys (CKKC) [Peptide 4],charge ratio (NH4+:PO4) needed to condense DNA (thiazole orange fluorescence minimum),plasmid DNA,> 8
Cys-(Lys)4-Cys-(Lys)4-Cys (CKKKKCKKKKC) [Peptide 11],sodium chloride concentration up to which DNA condensates are stable,[2],2.5 M
same,Particle Size (nm),[1],738 ± 154 nm
same,Zeta Potential (mV),[1],31 ± 3 mV
Cys-Trp-Lys8-Cys-Lys8-Cys (CWKKKKKKKKCKKKKKKKKC) [III],"Particle Size Mean Diameter, Oxidized, 15°",[3],26 nm
same,"Particle Size Mean Diameter, Oxidized, 90°",[3],39 nm
same,"Particle Size Mean Diameter, Saline",[3],157 nm
same,"Particle Size Mean Diameter, Reduced",[3],136 nm
Cys-Trp-Lys5-Cys-Lys5-Cys-Lys5-Cys [Peptide IV],"Particle Size Mean Diameter, Oxidized, 15°",[3],57 nm
same,"Particle Size Mean Diameter, Oxidized, 90°",[3],44 nm
same,"Particle Size Mean Diameter, Saline",[3],324 nm
same,particle size of electronegative DNA condensates,[3]; charge ratio of 0.9,62 nm
same,zeta potential of electronegative DNA condensates,[3]; charge ratio of 0.9,−18 mV
same,"Particle Size Mean Diameter, Reduced",[3],158 nm
same,sodium chloride concentration up to which fragmentation was resisted,[4],2.5 M
Cys-His-(Lys)6-His-Cys (CHKKKKKKHC) [Peptide 13],Particle Size (nm),[1],97 ± 40 nm
same,Zeta Potential (mV),[1],31 ± 1 mV
same,higher gene expression compared to peptide 7 DNA condensates,HepG2 cells,4 fold
Cys-His-Lys-His-Lys-(His)2-Lys-His-Cys (CHKHKHHKHC) [Peptide 16],Particle Size (nm),[1],320 ± 169 nm
same,Zeta Potential (mV),[1],23 ± 1 mV
Cys-(Lys)2-Cys-(Lys)2-Cys (CKKCKKC) [Peptide 9],sodium chloride concentration up to which DNA condensates are stable,[2],1.5 M
same,Particle Size (nm),[1],1668 ± 154 nm
Cys-(Lys)3-Cys-(Lys)3-Cys (CKKKCKKKC) [Peptide 10],sodium chloride concentration up to which DNA condensates are stable,[2],2.5 M
same,Particle Size (nm),[1],1375 ± 324 nm
same,Zeta Potential (mV),[1],34 ± 2 mV
Cys-His-(Lys)3-His-(Lys)2-His-Cys (CHKKKHKKHC) [Peptide 14],Particle Size (nm),[1],183 ± 64 nm
same,Zeta Potential (mV),[1],20 ± 2 mV
same,higher gene expression compared to peptide 7 DNA condensates,HepG2 cells,4 fold
Cys-Lys-Cys-Lys-Cys (CKCKC; printed: Cys-Lys-Cys-Lys-Cys) [Peptide 8],charge ratio (NH4+:PO4) needed to condense DNA (thiazole orange fluorescence minimum),plasmid DNA,6-8
Cys-(His-Lys)4-Cys (CHKHKHKHKC) [Peptide 15],Particle Size (nm),[1],205 ± 104 nm
same,Zeta Potential (mV),[1],23 ± 1 mV
